Measurements published in the DeepSol protein solubility set.

assay: soluble on expression in E. coli; label from the status in PepcDB or PDB records

Sequence	soluble on expression in E. coli
MHHHHHHMKEVVSSVYKEILVKLGLTEDRIETLEMKGGIIEDEFDGIRYVRFKDSAGKLRRGTVVIDEEYVIPGFPHIKRIINLRSGIRRIFKRGEFYVEEKVDGYNVRVVMYKGKMLGITRGGFICPFTTERIPDFVPQEFFKDNPNLILVGEMAGPESPYLVEGPPYVKEDIQFFLFDVQEIKTGRSLPVEERLKIAEEYGINHVEVFGKYTKDDVDELYQLIERLSKEGREGIIMKSPDMKKIVKYVTPYANINDIKIGARVFYELPPGYFTSRISRLAFYLAEKRIKGEEFERVAKELGSALLQPFVESIFDVEQEEDIHELFKVRVKRIETAYKMVTHFEKLGLKIEIVDIEEIKDGWRITFKRLYPDATNEIRELIGGKAFVD	soluble
MEGVELKEEWQDEDFPIPLPEDDSIEADTLDGTDPDRQPGSLEVNGNKVRKKLMAPDISLTLDPGEDSLWSDDLDEAGEVDLEGLDTPSENSDEFEWEDDLPKPKTTEVIRKGSITEYTATEEKGDGRRWRMFRIGEQDHRVDMKAIEPYKKVISHGGYYGDGLNAIVVFAVCFMPESGQPNYRYLMDNLFKYVIGTLELLVAENYMIIYLNGATTRRKMPSLGWLRRCYQQIDRRLRKNLKSLIIVHPSWFIRTLLAVTRPFISSKFSQKIRYVFNLAELAELVPMEYVGIPECIKQVDQELNGKQEPPKSEQ	not soluble
MSLKIIDGNIASPLGFSADGLHAGFKKRKKDFGWIVSEVPASVAGVYTTNKVIAAPLIVTRESVKKAQKMQALVVNSGVANSCTGLQGMEDAYTMQKWTATKLKIAPELVGVASTGVIGDLMPMDTLQKGLSKLVVNGNSDDFAQAILTTDTKVKTVAVTEQFGRDEVTMAGVAKGSGMIHPNMATMLAFITCDAVISSETLQLALSQNVETTFNQITVDGDTSTNDMVLVLSNGCTLNKEILPDTPEFDKFSAMLHFVMQELAKKIAKDGEGATKLIEVEVINAPNSLDACMMAKSVVGSSLVKTAIFGEDPNWGRILAAVGYAGVDVPVDNIDIYLADIPVMLASSPVDFDEEDMQDVMRADTIKIIVDLHAGDSVGKAWGCDLSYDYVKINALYRTEGHHHHHH	soluble
MGSDKIHHHHHHMATMMMNDMAARGLRVGLLTWDPEDATAHYPMDPAITWMKLAMGEASQRAGWGLRLRRQRAIRRLARGFRPDVVIGFQAGAFIALRTALVGLGIPMIAAERNAPDLYDFLRQGVRARRMTELALATASRITVQLPSYRPRYPAFLRRRIVDIPNPVPALAEPPYPNEAADPPRLILNMGRLSYQKNQAFLLRAFARVAPTHPEWTLAFVGDGDAGATLKALCHELDLDDRVLFPGATRDVGAWYARSAFLAFPSLWEGFPNALVEAFAHGLPAVGLRTTSGVNELIVEGETGLLSAPDEGAFAEALARMIRDDEARREMGRKAARSILAYDPKAIFDRWEALFRAVAKRRSAP	not soluble
MREAVIVAGARTPIGKAKRGSLKTVRPDDLGALVVKETLKRANYEGPIDDLIFGCAMPEAEQGLNMARNIGGLAGLSYDVPAITINRYCSSGLQSIAYGAERIMLGHSEAVLSGGAESMSLVPMMGHVVRPNSRLVEAAPEYYMGMGHTAEQVAVKYGISREEQDAFAVRSHQRAAKALAAGNFADETVSVDVTLRTVGANNKLQEETITFAQDEGVRAETTLDILGKLRPAFNVRGSVTAGNSSQMSDGAASVLLMDREKAVSDGMKPLAKFRSFAVAGVPPEVMGIGPIAAIPKALKLAGLELSDIGLFELNEAFASQSIQVIRELGLDEEKVNVNGGAIALGHPLGCTGAKLTLSLIHEMKRRNEQFGIVTMCIGGGMGAAGVFELL	not soluble
MSLAIRVVCISDTHDLKVDIPRGDILIHAGDLTDGGTVSDIQKQLDWLKEQPHPIKVVVAGNHDSWFDQKSRPEEDARSGAKPDMDGLIYLESGLTVQKVKGRTVNIFGVPDIPEIGPKEFAFQYATDNHPWLSKVPPQTDILVTHCPPKHHLDLGLGDSNLLREVWRVKPRLHVFGHVHCAYGKESVFFDNFQQTYERIMSRPRRGPILDFIPNEAWLDEGHHHHHH	not soluble
MKVTQLSSETLDRAHERFEETLAQMTVAEANTMPAPLIKSVTWLMWHTARELDLQISALNHSDPLWLSQHWTEKFALDLPDETEDWHHTPEEAAKVVVAEKQLLSDYLAASVALTKSYLDQIKEEQLSDVIDKNWTPPVTRQVRLVSAIDDAVMHSGQAVYTRRLVIGK	soluble
MRYVVGHKNPDTDSIASAIVLAYFLDCYPARLGDINPETEFVLRKFGVMEPELIESAKGKEIILVDHSEKSQSFDDLEEGKLIAIIDHHKVGLTTTEPILYYAKPVGSTATVIAELYFKDAIDLIGGKKKELKPDLAGLLLSAIISDTVLFKSPTTTDLDKEMAKKLAEIAGISNIEEFGMEILKAKSVVGKLKPEEIINMDFKNFDFNGKKVGIGQVEVIDVSEVESKKEDIYKLLEEKLKNEGYDLIVFLITDIMKEGSEALVVGNKEMFEKAFNVKVEGNSVFLEGVMSRKKQVVPPLERAYNG	soluble
SNAAQISDGKQYITLDKPVAGEPQVLEFFSFYCPHCYQFEEVLHVSDNVKKKLPEGTKMTKYHVEFLGPLGKELTQAWAVAMALGVEDKVTVPLFEAVQKTQTVQSAADIRKVFVDAGVKGEDYDAAWNSFVVKSLVAQQEKAAADLQLQGVPAMFVNGKYQINPQGMDTSSMDVFVQQYADTVKYLVDKK	soluble
GPGSMTTSASLFKKFTLENVAQIASSSHKEQKEVREELAEQYPALEAYWEEILPKKSDIFIIRCQGQVHCITLVSSQPEVLFFNHHGGPYLPHLKLLHKYPFMLTRHQVDIGGCRYVISGANVMCQGLTSAGGIVADGTEEGEVVAVYVEGKEHAVAVGTMLMSSDEIKEKNKGPCIENIHHLGDGLWMNPVLSASHISV	soluble
MSLVTQQALPPVVSSAASPSPQASAPLPTDKTAIAIVLQGFGYSDALTYDVLSRIPAPVAVGISPYVSNISDIIARAHASHREVYVTLPMQSAHPERVDEGPHALGYGNSAADDQRELEWCLSRAAGAEGLTDASENGDDQPGGGYATSPDFSPIASAISSKGLLYLAGSAQDGRRTRGMTATAWIDGDTDAATLDSRLAALLPQDGKPAKILLMVGPITPVMIDRLANWLKGPAAQNFVVVPPSAFADSGISNDQAANLSPSNPVAPLEGHHHHHH	soluble
MSLDLFIPEVAYINPQALKHPLGNEAYQYLKSMGVPIIESNRVSIDTDSPVKNYVKAKKTILLTVSKQKKLQQCKPSADYQFALSSSCPGHCEYCYLQTTQGEKPYMRLFVNIEEILENIQEYMDGNKPNITTFEAASITDPVGLDHITRALEKCITYFGESSHGRLRLVTKFDHVDPYLKLPHNGHTTFRFTINTQWVIKNFEHHTSSAHERVEGAKKIAHANYPLGFIIAPIMLYDHWEKDYKDLLEELSLALKDYEKPIGFEMIQHRFTSKAKDLILQRFPNTKLNLDEESRKLKWGPYGQFKYVYPTEKSDYMRDYLTGLIKDLFPNGRIEYFTEGHHHHHH	not soluble
MGSDKIHHHHHHMTPITQSEINKAAWGACDTFRGVVDPSIYKDYVLTMLFLKYVSDVWKDHKASYAAHYPDSPELVAAMMERETFKLPETASFDALHGRRHEPGNGERIDKALHAIEEANGSKLRDVFQDISFNSNKLGDEEQKNDILRHLLEDFAKTALDLRPSRVGNLDIIGGAYEYLISRFAATAGKKAGEFYTPAEVSELMARLVDPQPGDDICDPTCGSASLLMKCGRLIREGGSKAYALFGQEAIGSTWALAKMNLFLHGEENHQIEWGDTIRNPKLRTSDDMLRHFDVVVANPPFSLDKWGVESAEADKFARFRRGIPPKTKGDYAFILHMIETLKPKTGRMAVVVPHGVLFRGSSEGKIRHKLIEDNLLDAVIGLPEKLFFGTGIPSAILVFRKDKADDSVLFVDASREFVAGTNQNALDMTLIEKIVATHQTRQTVEKYAYRATLAEIIENDFNLNIPRYVDTFEEEEEIDLMAVRAERMKLKGEMAELEDRMEGYLQELGY	not soluble
GPYATEVELREMVDIAQEHGIVEIEERRMIQSVFDLASTTVRQVMVPRPEMIWIESGKTAGQATALCVRSGHSRIPVIGENVDDIIGIVYLKDLVQKTYYATDGGKSVLVDEVMREATFVPDSKSLDALLQEMQEDHKHIAILVDEYGGVAGLISIEDILEEIVGEIADEYDAREVAPIEKIGDRTYRVVSRL	not soluble
MTIDVWMQHPTQRFLHGDMFASLRRWTGGSIPETDIPIEATVSSMDAGGVTLGLLSAWRGPNGQDLISNDAVAEWVRLYPNRFAGLAAVDLDRPMAAVRELRRRVGEGFVGLRVVPWLWGAPPTDRRYYPLFAECVQSAVPFCTQVGHTGPLRPSETGRPIPYIDQVALDFPELVIVCGHVGYPWTEEMVAVARKHENVYIDTSAYTIKRLPGKLVRFMKTDTGQRKVLFGTNYPMIAHTHALTGLDELGLSDEARRDFLHGNAVRVFKLDPRGKVQT	not soluble
MSNPITITESAQSHFAKLLAQQPEGTNIRVFVVNPGTQNAECGVSYCPPEAVEATDTEYPFSGFSAYVDELSLPFLEEAVIDFVTDKMGSQLTLKAPNAKMRKVSDDASLMERVEYALQTQVNPQLAGHGGHVRLISISDDGVALVQFGGGCNGCSMVDVTLKEGIEKELLAQFAGELTAVRDSTEHDRGEHSYY	not soluble
PSQDPRTPGGSEWRETGPQFRCLPPVPADMVFLVDGSWSIGHSHFQQVKDFLASVIAPFEIGPDKVQVGLTQYSGDAQTEWDLNSLSTKEQVLAAVRRLRYKGGNTFTGLALTHVLGQNLQPAAGLRPEAAKVVILVTDGKSQDDVHTAARVLKDLGVNVFAVGVKNADEAELRLLASPPRDITVHSVLDFLQLGALAGLLSRLICQRLQGGSPRQGPAAAPALDTLPAPTSLVLSQVTSSSIRLSWTPAPRHPLKYLIVWRASRGGTPREVVVEGPAASTELHNLASRTEYLVSVFPIYEGGVGEGLRGLVTTAPLPPPRALTLAAVTPRTVHLTWQPSAGATHYLVRCSPASPKGEEEEREVQVGRPEVLLDGLEPGRDYEVSVQSLRGPEGSEARGIRARTPTLAPPRHLGFSDVSHDAARVFWEGAPRPVRLVRVTYVSSEGGHSGQTEAPGNATSAMLGPLSSSTTYTVRVTCLYPGGGSSTLTGRVTTKKAPSPSQLSMTELPGDAVQLAWVAAAPSGVLVYQITWTPLGEGKAHEISVPGNLGTAVLPGLGRHTEYDVTILAYYRDGARSDPVSLRYTPSTVSRSPPSNLALASETPDSLQVSWTPPLGRVLHYWLTYAPASGLGPEKSVSVPGARSHVTLPDLQAATKYRVLVSAIYAAGRSEAVSATGQTACPALRPDGSLPGFDLMVAFSLVEKAYASIRGVAMEPSAFGGTPTFTLFKDAQLTRRVSDVYPAPLPPEHTIVFLVRLLPETPREAFALWQMTAEDFQPLLGVLLDGDVGPASPPAVRRSRGREAPEPWEAFRGSPASRPGPQHPLGGRQVSRAGGCGPH	soluble
MNPNHNEGLLELYTQAISLEALKDAEQFLENSLLGKDAQVERLLAQVLIEEQQIETNRKKIAQLRIEKEELEFDCANSDLKSLEQMQAERDELQRKCQPGQHTKSNHKSSEQLLRMKKETDALRAYMKKISQFED	not soluble
PDGPTQLRALNLTEGFAVLHWKPPQNPVDTYDIQVTAPGAPPLQAETPGSAVDYPLHDLVLHTNYTATVRGLRGPNLTSPASITFTTGLEAPRDLEAKEVTP	soluble
MGSDKIHHHHHHMLQYRSSKMISMEIVEFKWLKFLDRYRSMAKHNLSNSGMPEPDLRSMGIDTRYESYLNEMVDLDAALRDTVARRYGVDRDNVIITNGGTEAIFLASAFISASSEVIAVPSPEYEPIFIVPESLDRRVRRVKLEKIGQAEKNSESLALSLPNNPTGKYGDIADLVRDAGRTYRYVYIDETFHDFTDDRGSSLYDGSKNLIVSNTMTKFYGLSSLRVGWIVSDKENIDAIRRIKDLTTINNARFSLFLARQAIEKWDRFRERTHSIVRKNADIARKELSDFGFYSDEYEGAPFMFVGDGRFDSEMMASKAISGYGVLVAPGSYFGLDGYLRVCLTALDAREDIAAFREFAEKELGK	not soluble
